Assay results from patent US20220064276A1 (SCHOLAR ROCK, published 2022).
Numbering of substitutions follows the chain as printed. Read-outs that look alike come from different tables or passages of the source.

B1: SR-AB37 (antibody, IgG1, V domains shown)
VH: QVQLVESGGGVVQPGRSLRLSCAASGFTFRSYVMHWVRQAPGKGLEWVAVISHEGSLKYYADSVKGRFTISRDNSKNTLYLQMNSLRAEDTAVYYCAVPRIAARRGGFGYWGQGTLVTVSS
VL: NFMLTQPHSVSESPGKTVTISCTRSSGLIDDNYVQWYQQRPGSSPTTVIYEDNQRPSGVPDRFSGSIDSSSNSASLTISGLKTEDEADYYCQSYDSDLQRVVFGGGTKLTVL
notes: Cycle 3, lineage SR-AB22
B2: SR-AB47-HuFab (Fab, V domains shown)
VH: B1 VH with L57G, V98R, Y110S
VL: B1 VL with L28N, D31Y, Q54V, S96Y, L98N, R100A
notes: Human Fab; also called SR-AB47 Fab
B3: SR-AB49-HuFab (Fab, V domains shown)
VH: B1 VH with L57G, V98R, Y110S
VL: B1 VL with L28N, D31Y, Q54V, S93G, S96W, L98T, R100G
notes: Human Fab; also called SR-AB49 Fab
B4: SR-AB40 (antibody, IgG1, V domains shown)
VH: B1 VH with V98R
VL: B1 VL with L28N, D31N, S96Y, D97S, L98N, R100G
notes: Cycle 3, lineage SR-AB23
B5: SR-AB39 (antibody, IgG1, V domains shown)
VH: B1 VH
VL: B1 VL with N53A, S96H, L98E, R100G
notes: Cycle 3, lineage SR-AB22
B6: SR-AB63 (antibody, IgG1, V domains shown)
VH: QLQLQESGPGLVKPSETLSLTCTVSGGSIRSSSYYWGWIRQPPGKGLEWIGSISYSATTYYNPSLKSRVTISVDTSKNQFSLKLSSVTAADTAVYYCAGDPSYDSIAGMQVWGQGTTVTVSS
VL: DIQLTQSPSSLSASVGDRVTITCRASQSISSYLNWYQQKPGKAPKLLIYAASNLQSGVPSRFSGSGSGTDFTLTISSLQPEDFATYYCQQSFDWPLTFGGGTKVEIK
notes: Cycle 3, lineage SR-AB26
B7: SR-AB64 (antibody, IgG1, V domains shown)
VH: B6 VH
VL: B6 VL with L4M, S31Y, A50S, N53S, L54R, S91G, W94F
notes: Cycle 3, lineage SR-AB26

Key:
[1] = molecular target: T1, LTBP-proTGFβ1: transfected human proTGFβ1 presented by endogenous LTBP1/3 of LN229 cells (human); experiment: cell-based or functional assay
T1 sequence (P01137 30-390): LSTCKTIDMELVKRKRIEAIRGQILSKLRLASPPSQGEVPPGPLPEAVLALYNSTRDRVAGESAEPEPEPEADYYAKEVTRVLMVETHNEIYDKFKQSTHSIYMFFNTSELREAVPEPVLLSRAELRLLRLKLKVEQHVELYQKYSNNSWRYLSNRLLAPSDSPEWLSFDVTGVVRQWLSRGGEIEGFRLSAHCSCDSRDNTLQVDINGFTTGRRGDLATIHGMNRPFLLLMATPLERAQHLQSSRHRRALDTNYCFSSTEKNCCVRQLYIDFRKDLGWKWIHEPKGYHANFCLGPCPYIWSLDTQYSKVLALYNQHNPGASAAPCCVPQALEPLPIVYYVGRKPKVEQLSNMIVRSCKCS

[2] = molecular target: T2, mouse LTBP1-proTGFβ1 complex (mouse, UniProt Q8CG19 339-1712; P04202 30-390); experiment: cell-based or functional assay
T2 sequence (Q8CG19 339-1712 limits assumed, chain 1 of 2): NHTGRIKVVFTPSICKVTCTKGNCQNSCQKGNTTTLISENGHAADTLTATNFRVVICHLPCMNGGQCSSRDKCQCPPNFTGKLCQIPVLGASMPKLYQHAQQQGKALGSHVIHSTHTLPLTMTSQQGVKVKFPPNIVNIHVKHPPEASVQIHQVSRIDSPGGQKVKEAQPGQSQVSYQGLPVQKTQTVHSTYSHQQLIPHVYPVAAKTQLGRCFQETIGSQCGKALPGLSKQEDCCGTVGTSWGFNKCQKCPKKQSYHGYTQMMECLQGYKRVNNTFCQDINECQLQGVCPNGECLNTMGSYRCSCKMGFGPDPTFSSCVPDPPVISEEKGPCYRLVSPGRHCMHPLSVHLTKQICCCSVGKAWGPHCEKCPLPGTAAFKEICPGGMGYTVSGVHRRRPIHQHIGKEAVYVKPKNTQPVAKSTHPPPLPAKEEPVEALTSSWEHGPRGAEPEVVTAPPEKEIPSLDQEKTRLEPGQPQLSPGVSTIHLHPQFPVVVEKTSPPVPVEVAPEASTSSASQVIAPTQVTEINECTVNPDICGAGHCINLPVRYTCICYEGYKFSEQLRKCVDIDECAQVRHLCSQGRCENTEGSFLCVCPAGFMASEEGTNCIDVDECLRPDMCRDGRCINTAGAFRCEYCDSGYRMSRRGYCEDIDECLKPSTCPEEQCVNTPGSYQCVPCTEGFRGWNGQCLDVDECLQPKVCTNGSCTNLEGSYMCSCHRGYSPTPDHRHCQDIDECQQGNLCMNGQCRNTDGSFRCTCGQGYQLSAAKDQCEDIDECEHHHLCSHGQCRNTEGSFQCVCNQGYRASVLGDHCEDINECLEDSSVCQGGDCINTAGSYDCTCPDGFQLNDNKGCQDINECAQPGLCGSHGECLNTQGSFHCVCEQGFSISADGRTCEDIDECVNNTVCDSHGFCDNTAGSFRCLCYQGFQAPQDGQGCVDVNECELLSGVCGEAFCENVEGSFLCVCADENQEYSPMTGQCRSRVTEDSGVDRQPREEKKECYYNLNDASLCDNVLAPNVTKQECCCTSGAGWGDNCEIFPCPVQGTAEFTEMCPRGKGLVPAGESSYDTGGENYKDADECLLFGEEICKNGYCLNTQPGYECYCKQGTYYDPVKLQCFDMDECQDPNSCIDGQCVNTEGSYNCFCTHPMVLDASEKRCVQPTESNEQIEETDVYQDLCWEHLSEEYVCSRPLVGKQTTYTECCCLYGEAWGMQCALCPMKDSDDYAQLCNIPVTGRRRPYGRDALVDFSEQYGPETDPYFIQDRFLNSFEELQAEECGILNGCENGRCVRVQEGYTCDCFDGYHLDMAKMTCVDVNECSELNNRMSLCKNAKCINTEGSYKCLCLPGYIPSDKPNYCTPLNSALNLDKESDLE
T2 sequence (P04202 30-390 limits assumed, chain 2 of 2): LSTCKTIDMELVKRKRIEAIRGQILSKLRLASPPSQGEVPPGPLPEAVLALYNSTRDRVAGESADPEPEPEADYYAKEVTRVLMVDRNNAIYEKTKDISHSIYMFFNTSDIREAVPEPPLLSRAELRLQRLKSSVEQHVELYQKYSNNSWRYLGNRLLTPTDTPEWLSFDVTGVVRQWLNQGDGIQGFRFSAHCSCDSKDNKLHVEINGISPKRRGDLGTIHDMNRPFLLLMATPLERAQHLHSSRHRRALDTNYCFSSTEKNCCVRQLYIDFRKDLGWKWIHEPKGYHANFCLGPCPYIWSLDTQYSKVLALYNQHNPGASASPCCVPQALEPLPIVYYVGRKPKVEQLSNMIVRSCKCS

[3] = molecular target: T3, human LTBP1-proTGFβ1 complex (human, UniProt Q14766 347-1721; P01137 30-390); experiment: Octet BLI, IgG captured
T3 construct: Large latent complex: one presenting molecule disulfide-linked to a proTGFβ1 dimer; also called Hu LTBP1-proTGFβ1; huLTBP1 proTGFβ1
Procedure: (§1) Binding affinities of the optimized antibodies were measured by Octet against human LTBP1-proTGFβ1, human LTBP3-proTGFβ1, mouse LTBP1-proTGFβ1, mouse LTBP3-proTGFβ1, and GARP-proTGFβ1 complexes, essentially as described in Example 6. […] The antigens were allowed to associate for 3 minutes followed by a 5-minute dissociation. Kinetics buffer (ForteBio®) was used throughout the experiment, and KD was determined using a 1:1 fitting model for each antibody antigen pair.

[4] = molecular target: T4, human LTBP3-proTGFβ1 complex (human, UniProt Q9NS15 44-1303; P01137 30-390, limits assumed); experiment: Octet BLI, IgG captured
T4 construct: Exemplary entries; also called Hu LTBP3-proTGFβ1; huLTBP3 proTGFb1
Procedure: as §1

[5] = molecular target: T2, mouse LTBP1-proTGFβ1 complex; experiment: Octet BLI, IgG captured
Procedure: as §1

[6] = molecular target: T5, mouse LTBP3-proTGFβ1 complex (mouse, UniProt Q61810 41-1245; P04202 30-390, limits assumed); experiment: Octet BLI, IgG captured
T5 construct: Exemplary entries; also called Mo LTBP3-proTGFβ1; Murine LTBP3 proTGFb1
T5 sequence (Q61810 other isoform, or with tags, fused parts or gaps limits assumed, chain 1 of 2): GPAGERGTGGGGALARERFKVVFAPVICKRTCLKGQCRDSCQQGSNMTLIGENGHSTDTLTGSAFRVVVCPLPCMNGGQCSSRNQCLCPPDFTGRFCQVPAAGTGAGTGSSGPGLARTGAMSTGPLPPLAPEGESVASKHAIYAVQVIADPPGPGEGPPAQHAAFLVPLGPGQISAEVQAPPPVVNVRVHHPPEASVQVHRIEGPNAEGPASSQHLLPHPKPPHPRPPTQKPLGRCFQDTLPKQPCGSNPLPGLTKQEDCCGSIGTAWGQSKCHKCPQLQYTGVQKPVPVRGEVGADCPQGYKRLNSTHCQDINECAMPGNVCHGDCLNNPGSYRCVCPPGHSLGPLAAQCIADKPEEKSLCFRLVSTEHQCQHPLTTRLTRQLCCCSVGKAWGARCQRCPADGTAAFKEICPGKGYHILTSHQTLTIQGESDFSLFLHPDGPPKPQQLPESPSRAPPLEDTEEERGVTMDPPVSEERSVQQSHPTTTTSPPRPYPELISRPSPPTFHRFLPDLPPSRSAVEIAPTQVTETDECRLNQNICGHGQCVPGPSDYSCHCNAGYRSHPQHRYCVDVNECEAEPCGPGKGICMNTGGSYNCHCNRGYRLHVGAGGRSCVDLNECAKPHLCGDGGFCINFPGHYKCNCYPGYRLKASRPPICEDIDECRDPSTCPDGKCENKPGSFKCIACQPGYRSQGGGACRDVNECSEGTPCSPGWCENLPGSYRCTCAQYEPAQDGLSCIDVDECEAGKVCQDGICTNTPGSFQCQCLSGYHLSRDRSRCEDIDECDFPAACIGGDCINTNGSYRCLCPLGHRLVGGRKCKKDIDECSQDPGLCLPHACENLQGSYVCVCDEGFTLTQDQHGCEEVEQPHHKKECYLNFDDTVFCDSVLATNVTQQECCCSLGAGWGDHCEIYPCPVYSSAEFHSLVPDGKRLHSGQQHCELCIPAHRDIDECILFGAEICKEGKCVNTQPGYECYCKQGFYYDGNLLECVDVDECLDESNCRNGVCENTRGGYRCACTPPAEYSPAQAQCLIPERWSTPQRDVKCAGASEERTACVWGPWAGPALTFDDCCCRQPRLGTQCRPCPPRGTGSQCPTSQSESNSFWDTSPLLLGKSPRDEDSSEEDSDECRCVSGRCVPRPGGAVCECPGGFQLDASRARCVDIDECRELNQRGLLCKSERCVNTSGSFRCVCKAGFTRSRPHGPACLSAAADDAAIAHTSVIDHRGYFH
T5 sequence (P04202 30-390 limits assumed, chain 2 of 2): as the sequence (P04202 30-390 limits assumed, chain 2 of 2) above
Procedure: as §1

[7] = molecular target: T6, human GARP-proTGFβ1 complex (human, UniProt Q14392 18-627; P01137 30-390, limits assumed); experiment: Octet BLI, IgG captured
T6 construct: Exemplary entries; also called Hu GARP-proTGFβ1; huGARP proTGFb1
T6 sequence (Q14392 18-627 limits assumed, chain 1 of 2): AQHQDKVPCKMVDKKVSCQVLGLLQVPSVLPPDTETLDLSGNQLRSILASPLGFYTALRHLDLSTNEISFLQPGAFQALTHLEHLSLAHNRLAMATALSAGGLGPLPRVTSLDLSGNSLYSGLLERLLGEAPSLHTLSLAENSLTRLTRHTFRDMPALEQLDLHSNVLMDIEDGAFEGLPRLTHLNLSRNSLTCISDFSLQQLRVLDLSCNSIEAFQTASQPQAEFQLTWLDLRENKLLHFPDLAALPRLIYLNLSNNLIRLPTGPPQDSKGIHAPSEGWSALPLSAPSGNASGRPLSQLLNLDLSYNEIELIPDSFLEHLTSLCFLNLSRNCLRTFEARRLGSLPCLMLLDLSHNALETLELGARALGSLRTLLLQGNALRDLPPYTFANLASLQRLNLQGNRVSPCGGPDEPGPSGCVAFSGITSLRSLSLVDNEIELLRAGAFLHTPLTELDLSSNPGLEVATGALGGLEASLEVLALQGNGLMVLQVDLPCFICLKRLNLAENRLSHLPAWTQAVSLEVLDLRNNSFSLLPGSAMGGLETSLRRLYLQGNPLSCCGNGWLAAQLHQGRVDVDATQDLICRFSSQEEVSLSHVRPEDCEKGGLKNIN
T6 sequence (P01137 30-390 limits assumed, chain 2 of 2): as the sequence (P01137 30-390) above
Procedure: as §1

[8] = molecular target: T6, human GARP-proTGFβ1 complex; experiment: Octet BLI, Table 10 (repeats Table 9)
Procedure: as §1
Table 9 presents the binding profile and affinity data for the indicated LTBP complex-specific antibodies (IgG1-agly) identified from the light chain optimization cycle 3, determined by Octet.

[9] = molecular target: T3, human LTBP1-proTGFβ1 complex; experiment: SPR Biacore 8K, Fab over captured antigen
Procedure: A Biacore 8K system was employed to determine the monovalent binding affinity and the kinetic parameters for antigen binding of test antibodies. Association and dissociation kinetics of Fab fragments SR-AB42-HuFab, SR-AB63-HuFab and SR-AB43-HuFab to antigen complexes were measured, and resulting ka, kd and KD are provided below. Briefly, the binding kinetics were evaluated by surface plasmon resonance using Biacore 8K (GE Healthcare). Biotinylated capture antigens were immobilized to the chip (10 nM, ˜200 RU loading). A Biotin CAPture sensor chip was used to capture the biotinylated antigens. […] 0 nM was used as a reference. […] 0 nM was used as a reference. Multi-cycle kinetics was employed where each analyte concentration was injected in a separate cycle and the sensor chip surface was regenerated after each cycle. A11 the assays were carried out in freshly prepared 1× HBS-EP+ buffer (10 mM HEPES, 150 mM NaCl, 3 mM EDTA, 0.05% Tween20, pH 7.4). Data were fit globally to a 1:1 binding model to obtain the kinetic parameters. The sensorgram for 0 nM analyte concentration was used as reference.

[10] = molecular target: T3, human LTBP1-proTGFβ1 complex; experiment: SPR Biacore 8K, Fab over captured antigen, Rmax fixed
Procedure: (§2) These experiments were performed using the Biacore 8K using the method “multi-cycle kinetics/affinity using Biotin CAPture kit.”
(§3) Data collection rate was set to 10 Hz and the Biotin CAPture step was performed for 300 seconds with a flow rate of 2 μL/minute. The Biotin CAPture reagent was used after a 1:5 dilution in 1× Biacore running buffer. Biotinylated ligands (the various complexes of TGFβ1) were utilized at a concentration of 10 nM and were immobilized to the sensor chip for 180 seconds with a flow rate of 10 μL/minute. […] Analyte contact time was 120 seconds and the dissociation time was 900 seconds. The regeneration cycle utilized was 120 seconds with a flow rate of 10 μL/minute.
(§4) The evaluation method used was “multi-cycle affinity using capture” and a 1:1 binding model was used. […] Global fits were utilized for every KD determination.

[11] = molecular target: T4, human LTBP3-proTGFβ1 complex; experiment: as above
Procedure: as §2, §3, §4

[12] = molecular target: T2, mouse LTBP1-proTGFβ1 complex; experiment: as above
Procedure: as §2, §3, §4

[13] = molecular target: T5, mouse LTBP3-proTGFβ1 complex; experiment: as above
Procedure: as §2, §3, §4

[14] = molecular target: T6, human GARP-proTGFβ1 complex; experiment: as above
Procedure: as §2, §3, §4

[15] = molecular target: T7, human LRRC33-proTGFβ1 complex (human, UniProt Q86YC3 19-650; P01137 30-390, limits assumed); experiment: as above
T7 construct: Exemplary entries; also called huLRRC33 proTGFb1; HuLRRC33-ProTGFb1
Procedure: as §2, §3, §4

[16] = molecular target: T8, mouse GARP-proTGFβ1 complex (mouse, UniProt G3XA59 18-628; P04202 30-390, limits assumed); experiment: as above
T8 construct: Exemplary entries; also called MuGARP-ProTGFb1; Mu GARP-ProTGFβ1
T8 sequence (G3XA59 18-628 limits assumed, chain 1 of 2): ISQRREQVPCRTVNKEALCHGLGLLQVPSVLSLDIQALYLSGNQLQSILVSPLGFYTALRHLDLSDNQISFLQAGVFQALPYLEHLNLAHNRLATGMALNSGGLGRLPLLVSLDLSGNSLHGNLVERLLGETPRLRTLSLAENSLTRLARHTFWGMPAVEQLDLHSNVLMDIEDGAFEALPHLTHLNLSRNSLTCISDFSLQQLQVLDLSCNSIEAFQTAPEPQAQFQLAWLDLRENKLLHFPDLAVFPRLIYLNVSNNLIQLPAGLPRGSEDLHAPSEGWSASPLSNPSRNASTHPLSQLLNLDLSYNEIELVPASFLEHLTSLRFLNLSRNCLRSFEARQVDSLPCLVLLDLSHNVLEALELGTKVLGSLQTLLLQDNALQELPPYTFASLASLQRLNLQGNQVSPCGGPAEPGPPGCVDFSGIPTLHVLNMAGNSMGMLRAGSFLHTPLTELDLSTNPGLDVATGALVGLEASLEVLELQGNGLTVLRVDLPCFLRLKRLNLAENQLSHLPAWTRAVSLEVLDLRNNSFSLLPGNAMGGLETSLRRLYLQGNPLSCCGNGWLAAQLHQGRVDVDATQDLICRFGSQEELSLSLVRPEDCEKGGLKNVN
T8 sequence (P04202 30-390 limits assumed, chain 2 of 2): as the sequence (P04202 30-390 limits assumed, chain 2 of 2) above
Procedure: as §2, §3, §4

[17] = molecular target: T9, mouse LRRC33-proTGFβ1 complex (mouse, UniProt Q8BMT4 20-651, limits assumed); experiment: as above
T9 construct: also called MuLRRC33-ProTGFb1; Mu LRRC33-ProTGFβ1
Procedure: as §2, §3, §4

[18] = molecular target: T1, LTBP-proTGFβ1: transfected human …; experiment: cell-based or functional assay; remark: listed apart in the source
[19] = molecular target: T2, mouse LTBP1-proTGFβ1 complex; experiment: cell-based or functional assay; remark: listed apart in the source
[20] = molecular target: T6, human GARP-proTGFβ1 complex; experiment: Octet (bio-layer interferometry), response at 200 nM antigen; 0.1 nm cutoff designates meaningful binding
Procedure: This experiment was performed at 200, 100, 50, and 25 nM human GARP proTGFb1 and human LTBP1 proTGFbl. […] Surface plasmon resonance (SPR)-based assays

[21] = molecular target: T1, LTBP-proTGFβ1: transfected human …; experiment: cell-based or functional assay; remark: listed apart in the source
[22] = molecular target: T2, mouse LTBP1-proTGFβ1 complex; experiment: cell-based or functional assay; remark: listed apart in the source

| Kd [3] | koff [3] | kon [3] | Kd [4] | koff [4] | kon [4] | Kd [5] | Kd [6] | also measured | Binder |
| --- | --- | --- | --- | --- | --- | --- | --- | --- | --- |
| 0.328 nM | 0.000118 s⁻¹ | 360000 M⁻¹ s⁻¹ | 0.139 nM | 7.58e-05 s⁻¹ | 545000 M⁻¹ s⁻¹ | 0.384 nM | 0.325 nM | IC50, endogenous hLTBP assay (CAGA12 luciferase) [1]: 1.93 nM; IC50, mLTBP1 assay (CAGA12 luciferase) [2]: 0.543 nM; Kd [7]: 36.1 nM; Kd [8]: 36.1 nM | B1 |
| – | – | – | – | – | – | – | – | Kd [9]: 0.074 nM; koff [9]: 0.000136 s⁻¹; kon [9]: 1.84e+06 M⁻¹ s⁻¹; Kd [10]: 0.217 nM; Kd [11]: 0.33 nM; Kd [12]: 0.198 nM; Kd [13]: 0.4 nM; Kd [14]: 6.5 nM; Kd [15]: 6.66 nM; Kd [16]: 1.95 nM; Kd [17]: 9.16 nM | B2 |
| – | – | – | – | – | – | – | – | Kd [9]: 0.17 nM; koff [9]: 0.000138 s⁻¹; kon [9]: 809000 M⁻¹ s⁻¹; Kd [10]: 0.319 nM; Kd [11]: 0.58 nM; Kd [12]: 0.379 nM; Kd [13]: 0.65 nM; Kd [14]: 6.55 nM; Kd [15]: 7.7 nM; Kd [16]: 2.82 nM; Kd [17]: 6.95 nM | B3 |
| 0.401 nM | 6e-05 s⁻¹ | 150000 M⁻¹ s⁻¹ | 0.333 nM | 6.07e-05 s⁻¹ | 182000 M⁻¹ s⁻¹ | 1.08 nM | 1.16 nM | IC50, endogenous hLTBP assay (CAGA12 luciferase) [18]: 2.1 nM; IC50, mLTBP1 assay (CAGA12 luciferase) [19]: 0.333 nM; binding result [20]: no binding (tested: 200 nM) | B4 |
| 0.205 nM | 6e-05 s⁻¹ | 292000 M⁻¹ s⁻¹ | 0.136 nM | 6e-05 s⁻¹ | 441000 M⁻¹ s⁻¹ | 0.232 nM | 0.342 nM | IC50, endogenous hLTBP assay (CAGA12 luciferase) [1]: 1.01 nM; IC50, mLTBP1 assay (CAGA12 luciferase) [2]: 0.479 nM; Kd [7]: 389 nM; Kd [8]: 389 nM | B5 |
| 0.611 nM | 7.24e-05 s⁻¹ | 118000 M⁻¹ s⁻¹ | 0.494 nM | 7.84e-05 s⁻¹ | 159000 M⁻¹ s⁻¹ | 1.09 nM | 2 nM | IC50, endogenous hLTBP assay (CAGA12 luciferase) [21]: 1.78 nM; IC50, mLTBP1 assay (CAGA12 luciferase) [22]: 0.207 nM | B6 |
| 0.467 nM | – | – | 0.471 nM | 9.18e-05 s⁻¹ | 195000 M⁻¹ s⁻¹ | 1.03 nM | 2.85 nM | IC50, endogenous hLTBP assay (CAGA12 luciferase) [21]: 3.12 nM; IC50, mLTBP1 assay (CAGA12 luciferase) [22]: 0.268 nM; binding result [20]: no binding (tested: 200 nM) | B7 |
